Key:
[1] = molecular target: T1, purified interference factor(s) from serum of Donor A; assay: Biacore, immobilized interference factor
T1 construct: text names Donors 8, 19 and 30

[2] = molecular target: T2, purified interference factor(s) from serum of Donor C; assay: Biacore, immobilized interference factor
T2 construct: text names Donors 8, 19 and 30

[3] = molecular target: T3, purified interference factor(s) from serum of Donor B; assay: Biacore, immobilized interference factor
T3 construct: text names Donors 8, 19 and 30

[4] = molecular target: T4, monoclonal antibody 21-4-3; assay: Biacore, captured 21-4-3
T4 construct: mouse IgG1 heavy chain, kappa light chain; also called mAb21-4-3; produced by hybridoma ABH0015 (LMBP-9680-CB)
Experimental: Binding measurements were performed using a Biacore T100 using a CM5 T120416 sensor chip, with running buffer HBS-EP+, 25° C. […] The anti-mouse IgG used was a polyclonal rabbit anti-mouse IgG antibodies reacting with all IgG subclasses, IgA and IgM (GE Healthcare; Cat#BR-1008-38; Lot#10056316). Immobilisation of the anti-mouse IgG was performed using manual amine coupling using a 7 minute injection of EDC/NHS for activation and a 7 minute injection of 1M ethanolamine HCl pH 8.5 for deactivation (Biacore, amine coupling kit).

B1: SEQ ID NO 85 (VHH)
VHH: EVQLVESGGGSVQPGGSLRLSCAASRSIGRLDRMGWYRHRPGEPRELVATITGGSSINYGDSVKGRFTISIDNSKNTVYLQMNSLRPEDTAVYYCNFNKYVTSRDTWGQGTLVQVGG
notes: L11S, T110Q, S112G, S113G
In the case of B1, the “binding vs Reference Sequence (=100%)” value [1] is reported as 46%, the “binding vs Reference Sequence (=100%)” value [2] is reported as 42% and the “binding vs Reference Sequence (=100%)” value [3] is reported as 5%. For the same binder, the “binding vs Reference Sequence (=100%)” value [4] was 32%.

B2: SEQ ID NO 75 (VHH)
VHH: EVQLVESGGGLVQPGGSLRLSCAASRSIGRLDRMGWYRHRPGEPRELVATITGGSSINYGDSVKGRFTISIDNSKNTVYLQMNSLRPEDTAVYYCNFNKYVTSRDTWGQGTLVTVSS
notes: C-terminal: AA
In the case of B2, the “binding vs Reference Sequence (=100%)” value [1] is reported as 1%, the “binding vs Reference Sequence (=100%)” value [2] is reported as 16% and the “binding vs Reference Sequence (=100%)” value [3] is reported as 11%. For the same binder, the “binding vs Reference Sequence (=100%)” value [4] was 1%.

B3: SEQ ID NO 74 (VHH)
VHH: EVQLVESGGGLVQPGGSLRLSCAASRSIGRLDRMGWYRHRPGEPRELVATITGGSSINYGDSVKGRFTISIDNSKNTVYLQMNSLRPEDTAVYYCNFNKYVTSRDTWGQGTLVTVSS
notes: C-terminal: G
For B3, the “binding vs Reference Sequence (=100%)” value [1] was 4%, the “binding vs Reference Sequence (=100%)” value [2] was 33% and the “binding vs Reference Sequence (=100%)” value [3] was 41%. For the same binder, the “binding vs Reference Sequence (=100%)” value [4] was 1%.

B4: SEQ ID NO 73 (VHH)
VHH: EVQLVESGGGLVQPGGSLRLSCAASRSIGRLDRMGWYRHRPGEPRELVATITGGSSINYGDSVKGRFTISIDNSKNTVYLQMNSLRPEDTAVYYCNFNKYVTSRDTWGQGTLVTVGG
notes: C-terminal: G; S112G, S113G
In the case of B4, the “binding vs Reference Sequence (=100%)” value [1] is reported as 6%, the “binding vs Reference Sequence (=100%)” value [2] is reported as 9% and the “binding vs Reference Sequence (=100%)” value [3] is reported as 8%. For the same binder, the “binding vs Reference Sequence (=100%)” value [4] was 1%.

B5: SEQ ID NO 86 (VHH)
VHH: EVQLVESGGGSVQPGGSLRLSCAASRSIGRLDRMGWYRHRPGEPRELVATITGGSSINYGDSVKGRFTISIDNSKNTVYLQMNSLRPEDTAVYYCNFNKYVTSRDTWGQGTLVQVSS
notes: L11S, T110Q
With B5 the “binding vs Reference Sequence (=100%)” value [1] was 76%, the “binding vs Reference Sequence (=100%)” value [2] was 86% and the “binding vs Reference Sequence (=100%)” value [3] was 6%. For the same binder, the “binding vs Reference Sequence (=100%)” value [4] was 64%.

B6: SEQ ID NO 87 (VHH)
VHH: EVQLVESGGGSVQPGGSLRLSCAASRSIGRLDRMGWYRHRPGEPRELVATITGGSSINYGDSVKGRFTISIDNSKNTVYLQMNSLRPEDTAVYYCNFNKYVTSRDTWGQGTLVTVGG
notes: L11S, S112G, S113G
For B6, the “binding vs Reference Sequence (=100%)” value [1] was 51%, the “binding vs Reference Sequence (=100%)” value [2] was 39% and the “binding vs Reference Sequence (=100%)” value [3] was 5%. The “binding vs Reference Sequence (=100%)” value [4] was 41%.

B7: SEQ ID NO 77 (VHH)
VHH: EVQLVESGGGLVQPGGSLRLSCAASRSIGRLDRMGWYRHRPGEPRELVATITGGSSINYGDSVKGRFTISIDNSKNTVYLQMNSLRPEDTAVYYCNFNKYVTSRDTWGQGTLVTVSS
notes: C-terminal: A
In the case of B7, the “binding vs Reference Sequence (=100%)” value [1] is reported as 2%, the “binding vs Reference Sequence (=100%)” value [2] is reported as 13% and the “binding vs Reference Sequence (=100%)” value [3] is reported as 12%. For the same binder, the “binding vs Reference Sequence (=100%)” value [4] was 1%.

B8: SEQ ID NO 89 (VHH)
VHH: EVQLVESGGGSVQAGGSLRLSCAASRSIGRLDRMGWYRHRPGEPRELVATITGGSSINYGDSVKGRFTISIDNSKNTVYLQMNSLRPEDTAVYYCNFNKYVTSRDTWGQGTLVQVGG
notes: L11S, P14A, T110Q, S112G, S113G
In the case of B8, the “binding vs Reference Sequence (=100%)” value [1] is reported as 14%, the “binding vs Reference Sequence (=100%)” value [2] is reported as 17% and the “binding vs Reference Sequence (=100%)” value [3] is reported as 5%. For the same binder, the “binding vs Reference Sequence (=100%)” value [4] was 2%.

B9: SEQ ID NO 88 (VHH)
VHH: EVQLVESGGGSVQPGGSLRLSCAASRSIGRLDRMGWYRHRPGEPRELVATITGGSSINYGDSVKGRFTISIDNSKNTVYLQMNSLRPEDTAVYYCNFNKYVTSRDTWGQGTLVQVSS
notes: C-terminal: A; L11S, T110Q
B9 was tested, and the “binding vs Reference Sequence (=100%)” value [1] was 1%, the “binding vs Reference Sequence (=100%)” value [2] was 11% and the “binding vs Reference Sequence (=100%)” value [3] was 5%. The “binding vs Reference Sequence (=100%)” value [4] was 1%.
